From patent publication US20230212237

Tests used:
[1] = target: GST-Rheb wild type (recombinant, human Rheb)
GST-Rheb wild type (recombinant, human Rheb), sequence (chain, as listed by the source): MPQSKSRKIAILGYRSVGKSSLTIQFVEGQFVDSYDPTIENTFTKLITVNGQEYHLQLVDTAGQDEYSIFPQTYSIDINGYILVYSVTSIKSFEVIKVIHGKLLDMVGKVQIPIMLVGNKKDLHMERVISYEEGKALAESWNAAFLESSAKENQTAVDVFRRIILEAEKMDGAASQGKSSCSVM

B1: FLAG-TSC1 and FLAG-TSC2 (TSC complex) (protein)
chain 1: MAQQANVGELLAMLDSPMLGVRDDVTAVFKENLNSDRGPMLVNTLVDYYLETSSQPALHILTTLQEPHDKHLLDRINEYVGKAATRLSILSLLGHVIRLQPSWKHKLSQAPLLPSLLKCLKMDTDVVVLTTGVLVLITMLPMIPQSGKQHLLDFFDIFGRLSSWCLKKPGHVAEVYLVHLHASVYALFHRLYGMYPCNFVSFLRSHYSMKENLETFEEVVKPMMEHVRIHPELVTGSKDHELDPRRWKRLETHDVVIECAKISLDPTEASYEDGYSVSHQISARFPHRSADVTTSPYADTQNSYGCATSTPYSTSRLMLLNMPGQLPQTLSSPSTRLITEPPQATLWSPSMVCGMTTPPTSPGNVPPDLSHPYSKVFGTTAGGKGTPLGTPATSPPPAPLCHSDDYVHISLPQATVTPPRKEERMDSARPCLHRQHHLLNDRGSEEPPGSKGSVTLSDLPGFLGDLASEEDSIEKDKEEAAISRELSEITTAEAEPVVPRGGFDSPFYRDSLPGSQRKTHSAASSSQGASVNPEPLHSSLDKLGPDTPKQAFTPIDLPCGSADESPAGDRECQTSLETSIFTPSPCKIPPPTRVGFGSGQPPPYDHLFEVALPKTAHHFVIRKTEELLKKAKGNTEEDGVPSTSPMEVLDRLIQQGADAHSKELNKLPLPSKSVDWTHFGGSPPSDEIRTLRDQLLLLHNQLLYERFKRQQHALRNRRLLRKVIKAAALEEHNAAMKDQLKLQEKDIQMWKVSLQKEQARYNQLQEQRDTMVTKLHSQIRQLQHDREEFYNQSQELQTKLEDCRNMIAELRIELKKANNKVCHTELLLSQVSQKLSNSESVQQQMEFLNRQLLVLGEVNELYLEQLQNKHSDTTKEVEMMKAAYRKELEKNRSHVLQQTQRLDTSQKRILELESHLAKKDHLLLEQKKYLEDVKLQARGQLQAAESRYEAQKRITQVFELEILDLYGRLEKDGLLKKLEEEKAEAAEAAEERLDCCNDGCSDSMVGHNEEASGHNGETKTPRPSSARGSSGSRGGGGSSSSSSELSTPEKPPHQRAGPFSSRWETTMGEASASIPTTVGSLPSSKSFLGMKARELFRNKSESQCDEDGMTSSLSESLKTELGKDLGVEAKIPLNLDGPHPSPPTPDSVGQLHIMDYNETHHEHS
chain 2: not shown
GST-Rheb E40K
  GAP assay: hydrolysis of Rheb-bound [alpha-32P]GTP to GDP (thin-layer chromatography): TSC1/TSC2 were completely unable to promote hydrolysis of GTP bound to the S21L, T23M, Y35N, E40K and G63A mutants
GST-Rheb G29S
  GAP assay: hydrolysis of Rheb-bound [alpha-32P]GTP to GDP (thin-layer chromatography): partial resistance to them was seen for Rheb mutants G29S and Q64L
GST-Rheb G63A
  GAP assay: hydrolysis of Rheb-bound [alpha-32P]GTP to GDP (thin-layer chromatography): TSC1/TSC2 were completely unable to promote hydrolysis of GTP bound to the S21L, T23M, Y35N, E40K and G63A mutants
GST-Rheb Q64L
  GAP assay: hydrolysis of Rheb-bound [alpha-32P]GTP to GDP (thin-layer chromatography): partial resistance to them was seen for Rheb mutants G29S and Q64L
GST-Rheb S21L
  GAP assay: hydrolysis of Rheb-bound [alpha-32P]GTP to GDP (thin-layer chromatography): TSC1/TSC2 were completely unable to promote hydrolysis of GTP bound to the S21L, T23M, Y35N, E40K and G63A mutants
GST-Rheb T23M
  GAP assay: hydrolysis of Rheb-bound [alpha-32P]GTP to GDP (thin-layer chromatography): TSC1/TSC2 were completely unable to promote hydrolysis of GTP bound to the S21L, T23M, Y35N, E40K and G63A mutants
GST-Rheb Y35N
  GAP assay: hydrolysis of Rheb-bound [alpha-32P]GTP to GDP (thin-layer chromatography): TSC1/TSC2 were completely unable to promote hydrolysis of GTP bound to the S21L, T23M, Y35N, E40K and G63A mutants
[1]
  GAP assay: hydrolysis of Rheb-bound [alpha-32P]GTP to GDP (thin-layer chromatography): Incubation with FLAG-TSC1 and FLAG-TSC2 led to hydrolysis of Rheb-GTP into Rheb-GDP
